According to publication PMC5031503:

Molecular target: Myc-tagged Scar/WAVE complex (Myc-Pir121, Myc-Nap1, Myc-Abi1d, Myc-WAVE2), Q96F07;Q9Y2A7;Q9Y6W5
Assay: co-immunoprecipitation, quantified western blot band intensities
Conditions: chain shown with the change; HEK293FT cells; n=4; Scar/WAVE2 normalized against the immunoprecipitated Lpd; parent: est. 100; read off a plot

Chain of Myc-tagged Scar/WAVE complex (Myc-Pir121, Myc-Nap1, Myc-Abi1d, Myc-WAVE2), Q96F07;Q9Y2A7;Q9Y6W5 (chain, as listed by the source, chain 1 of 3): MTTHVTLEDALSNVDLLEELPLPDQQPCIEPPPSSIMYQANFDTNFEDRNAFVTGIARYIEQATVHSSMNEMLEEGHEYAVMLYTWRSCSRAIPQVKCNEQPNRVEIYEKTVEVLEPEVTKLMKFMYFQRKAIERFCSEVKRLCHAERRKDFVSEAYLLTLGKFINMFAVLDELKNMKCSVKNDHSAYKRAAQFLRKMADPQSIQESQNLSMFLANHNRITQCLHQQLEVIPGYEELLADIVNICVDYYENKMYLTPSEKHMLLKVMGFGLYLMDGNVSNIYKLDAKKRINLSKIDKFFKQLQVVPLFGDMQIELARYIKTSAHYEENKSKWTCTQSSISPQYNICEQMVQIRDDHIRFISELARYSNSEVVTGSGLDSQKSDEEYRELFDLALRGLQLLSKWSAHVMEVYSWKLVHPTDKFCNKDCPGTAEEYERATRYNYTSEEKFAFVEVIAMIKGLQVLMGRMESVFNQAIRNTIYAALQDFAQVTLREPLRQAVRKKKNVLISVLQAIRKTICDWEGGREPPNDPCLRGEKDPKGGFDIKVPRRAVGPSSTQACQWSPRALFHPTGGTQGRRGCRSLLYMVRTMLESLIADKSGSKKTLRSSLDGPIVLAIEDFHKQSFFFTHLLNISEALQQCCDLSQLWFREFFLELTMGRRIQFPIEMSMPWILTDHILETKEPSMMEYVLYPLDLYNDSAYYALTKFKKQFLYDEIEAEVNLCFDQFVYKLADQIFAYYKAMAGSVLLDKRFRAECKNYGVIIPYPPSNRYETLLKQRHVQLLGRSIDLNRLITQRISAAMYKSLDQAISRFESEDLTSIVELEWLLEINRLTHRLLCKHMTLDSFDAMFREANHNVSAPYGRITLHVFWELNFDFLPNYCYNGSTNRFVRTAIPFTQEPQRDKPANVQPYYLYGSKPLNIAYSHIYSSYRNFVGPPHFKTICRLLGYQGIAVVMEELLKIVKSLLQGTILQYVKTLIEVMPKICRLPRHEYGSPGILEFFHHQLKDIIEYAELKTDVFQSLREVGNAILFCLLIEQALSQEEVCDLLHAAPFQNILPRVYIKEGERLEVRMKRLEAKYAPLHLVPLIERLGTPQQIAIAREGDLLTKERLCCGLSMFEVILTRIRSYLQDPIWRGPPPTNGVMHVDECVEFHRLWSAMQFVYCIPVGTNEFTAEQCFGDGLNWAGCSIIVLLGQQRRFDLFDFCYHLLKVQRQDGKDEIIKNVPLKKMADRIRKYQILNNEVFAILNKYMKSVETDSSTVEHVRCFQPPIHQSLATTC
Chain of Myc-tagged Scar/WAVE complex (Myc-Pir121, Myc-Nap1, Myc-Abi1d, Myc-WAVE2), Q96F07;Q9Y2A7;Q9Y6W5 (chain, as listed by the source, chain 2 of 3): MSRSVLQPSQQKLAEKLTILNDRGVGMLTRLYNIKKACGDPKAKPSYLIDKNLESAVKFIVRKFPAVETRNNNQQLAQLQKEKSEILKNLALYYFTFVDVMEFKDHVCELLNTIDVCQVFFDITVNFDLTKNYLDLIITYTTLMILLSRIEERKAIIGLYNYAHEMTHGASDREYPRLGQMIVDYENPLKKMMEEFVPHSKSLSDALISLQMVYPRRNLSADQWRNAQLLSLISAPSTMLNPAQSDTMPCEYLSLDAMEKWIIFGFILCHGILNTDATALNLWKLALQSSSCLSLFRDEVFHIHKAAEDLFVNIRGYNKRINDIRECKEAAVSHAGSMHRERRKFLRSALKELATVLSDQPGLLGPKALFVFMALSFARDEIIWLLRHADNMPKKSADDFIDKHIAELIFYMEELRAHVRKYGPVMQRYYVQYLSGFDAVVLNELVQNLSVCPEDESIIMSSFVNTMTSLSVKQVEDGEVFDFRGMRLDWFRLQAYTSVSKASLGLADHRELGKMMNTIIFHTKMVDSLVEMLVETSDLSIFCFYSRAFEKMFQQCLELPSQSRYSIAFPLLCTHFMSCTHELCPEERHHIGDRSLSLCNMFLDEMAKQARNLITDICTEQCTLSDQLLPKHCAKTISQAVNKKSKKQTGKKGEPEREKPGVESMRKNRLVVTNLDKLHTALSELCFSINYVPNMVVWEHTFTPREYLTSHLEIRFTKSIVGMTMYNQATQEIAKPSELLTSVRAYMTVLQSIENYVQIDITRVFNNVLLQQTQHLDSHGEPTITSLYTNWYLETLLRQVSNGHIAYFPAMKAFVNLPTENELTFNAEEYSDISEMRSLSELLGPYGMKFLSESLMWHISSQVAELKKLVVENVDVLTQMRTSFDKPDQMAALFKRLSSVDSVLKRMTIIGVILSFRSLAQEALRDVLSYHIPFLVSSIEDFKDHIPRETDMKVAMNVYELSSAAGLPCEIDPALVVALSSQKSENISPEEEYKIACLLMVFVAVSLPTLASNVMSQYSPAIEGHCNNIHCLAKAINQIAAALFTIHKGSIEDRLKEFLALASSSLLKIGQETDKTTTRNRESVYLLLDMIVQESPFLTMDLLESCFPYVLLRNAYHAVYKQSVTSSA
Chain of Myc-tagged Scar/WAVE complex (Myc-Pir121, Myc-Nap1, Myc-Abi1d, Myc-WAVE2), Q96F07;Q9Y2A7;Q9Y6W5 (chain, as listed by the source, chain 3 of 3): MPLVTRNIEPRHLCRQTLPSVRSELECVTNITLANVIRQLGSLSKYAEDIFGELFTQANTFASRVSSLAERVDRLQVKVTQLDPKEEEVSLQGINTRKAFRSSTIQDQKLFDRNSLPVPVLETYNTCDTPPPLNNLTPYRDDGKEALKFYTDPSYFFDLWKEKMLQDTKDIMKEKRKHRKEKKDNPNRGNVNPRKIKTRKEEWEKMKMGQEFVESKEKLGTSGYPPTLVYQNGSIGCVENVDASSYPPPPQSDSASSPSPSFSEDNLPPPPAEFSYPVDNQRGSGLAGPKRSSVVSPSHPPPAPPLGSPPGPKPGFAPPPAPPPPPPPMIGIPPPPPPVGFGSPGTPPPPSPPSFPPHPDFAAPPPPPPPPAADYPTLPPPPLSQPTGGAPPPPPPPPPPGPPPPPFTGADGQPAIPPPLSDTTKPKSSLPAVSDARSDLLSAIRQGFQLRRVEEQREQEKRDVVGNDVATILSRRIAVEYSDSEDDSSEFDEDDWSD

percent of parent (% co-IP Lpd-WAVE2) | Binder
39 | GFP-Lpd (Lamellipodin, wild type), Q70E73 Y366F; Y426F; Y456F; Y466F; Y481F; Y510F (protein) MEQLSDEEIDHGAEEDSDKEDQDLDKMFGAWLGELDKLTQSLDSDKPMEPVKRSPLRQETNMANFSYRFSIYNLNEALNQGETVDLDALMADLCSIEQELSSIGSGNSKRQITETKATQKLPVSRHTLKHGTLKGLSSSSNRIAKPSHASYSLDDVTAQLEQASLSMDEAAQQSVLEDTKPLVTNQHRRTASAGTVSDAEVHSISNSSHSSITSAASSMDSLDIDKVTRPQELDLTHQGQPITEEEQAAKLKAEKIRVALEKIKEAQVKKLVIRVHMSDDSSKTMMVDERQTVRQVLDNLMDKSHCGYSLDWSLVETVSELQMERIFEDHENLVENLLNWTRDSQNKLIFMERIEKYALFKNPQNFLLGKKETAEMADRNKEVLLEECFCGSSVTVPEIEGVLWLKDDGKKSWKKRYFLLRASGIFYVPKGKAKVSRDLVCFLQLDHVNVYYGQDFRNKYKAPTDFCLVLKHPQIQKKSQFIKYLCCDDVRTLHQWVNGIRIAKYGKQLFMNYQEALKRTESAYDWTSLSSSSIKSGSSSSSIPESQSNHSNQSDSGVSDTQPAGHVRSQSIVSSVFSEAWKRGTQLEESSKARMESMNRPYTSLVPPLSPQPKIVTPYTASQPSPPLPPPPPPPPPPPPPPPPPPPPLPSQSAPSAGSAAPMFVKYSTITRLQNASQHSGALFKPPTPPVMQSQSVKPQILVPPNGVVPPPPPPPPPPTPGSAMAQLKPAPCAPSLPQFSAPPPPLKIHQVQHITQVAPPTPPPPPPIPAPLPPQAPPKPLVTIPAPTSTKTVAPVVTQAAPPTPTPPVPPAKKQPAFPASYIPPSPPTPPVPVPPPTLPKQQSFCAKPPPSPLSPVPSVVKQIASQFPPPPTPPAMESQPLKPVPANVAPQSPPAVKAKPKWQPSSIPVPSPDFPPPPPESSLVFPPPPPSPVPAPPPPPPPTASPTPDKSGSPGKKTSKTSSPGGKKPPPTPQRNSSIKSSSGAEHPEPKRPSVDSLVSKFTPPAESGSPSKETLPPPAAPPKPGKLNLSGVNLPGVLQQGCVSAKAPVLSGRGKDSVVEFPSPPSDSDFPPPPPETELPLPPIEIPAVFSGNTSPKVAVVNPQPQQWSKMSVKKAPPPTRPKRNDSTRLTQAEISEQPTMATVVPQVPTSPKSSLSVQPGFLADLNRTLQRKSITRHGSLSSRMSRAEPTATMDDMALPPPPPELLSDQQKAGYGGSHISGYATLRRGPPPAPPKRDQNTKLSRDW
31 | GFP-Lpd (Lamellipodin, wild type), Q70E73 Y366F; Y426F; Y456F; Y466F; Y481F; Y510F; Y513F; Y1226F (protein) MEQLSDEEIDHGAEEDSDKEDQDLDKMFGAWLGELDKLTQSLDSDKPMEPVKRSPLRQETNMANFSYRFSIYNLNEALNQGETVDLDALMADLCSIEQELSSIGSGNSKRQITETKATQKLPVSRHTLKHGTLKGLSSSSNRIAKPSHASYSLDDVTAQLEQASLSMDEAAQQSVLEDTKPLVTNQHRRTASAGTVSDAEVHSISNSSHSSITSAASSMDSLDIDKVTRPQELDLTHQGQPITEEEQAAKLKAEKIRVALEKIKEAQVKKLVIRVHMSDDSSKTMMVDERQTVRQVLDNLMDKSHCGYSLDWSLVETVSELQMERIFEDHENLVENLLNWTRDSQNKLIFMERIEKYALFKNPQNFLLGKKETAEMADRNKEVLLEECFCGSSVTVPEIEGVLWLKDDGKKSWKKRYFLLRASGIFYVPKGKAKVSRDLVCFLQLDHVNVYYGQDFRNKYKAPTDFCLVLKHPQIQKKSQFIKYLCCDDVRTLHQWVNGIRIAKYGKQLFMNFQEALKRTESAYDWTSLSSSSIKSGSSSSSIPESQSNHSNQSDSGVSDTQPAGHVRSQSIVSSVFSEAWKRGTQLEESSKARMESMNRPYTSLVPPLSPQPKIVTPYTASQPSPPLPPPPPPPPPPPPPPPPPPPPLPSQSAPSAGSAAPMFVKYSTITRLQNASQHSGALFKPPTPPVMQSQSVKPQILVPPNGVVPPPPPPPPPPTPGSAMAQLKPAPCAPSLPQFSAPPPPLKIHQVQHITQVAPPTPPPPPPIPAPLPPQAPPKPLVTIPAPTSTKTVAPVVTQAAPPTPTPPVPPAKKQPAFPASYIPPSPPTPPVPVPPPTLPKQQSFCAKPPPSPLSPVPSVVKQIASQFPPPPTPPAMESQPLKPVPANVAPQSPPAVKAKPKWQPSSIPVPSPDFPPPPPESSLVFPPPPPSPVPAPPPPPPPTASPTPDKSGSPGKKTSKTSSPGGKKPPPTPQRNSSIKSSSGAEHPEPKRPSVDSLVSKFTPPAESGSPSKETLPPPAAPPKPGKLNLSGVNLPGVLQQGCVSAKAPVLSGRGKDSVVEFPSPPSDSDFPPPPPETELPLPPIEIPAVFSGNTSPKVAVVNPQPQQWSKMSVKKAPPPTRPKRNDSTRLTQAEISEQPTMATVVPQVPTSPKSSLSVQPGFLADLNRTLQRKSITRHGSLSSRMSRAEPTATMDDMALPPPPPELLSDQQKAGYGGSHISGFATLRRGPPPAPPKRDQNTKLSRDW
41 | GFP-Lpd (Lamellipodin, wild type), Q70E73 Y426F; Y456F; Y513F; Y1226F (protein) MEQLSDEEIDHGAEEDSDKEDQDLDKMFGAWLGELDKLTQSLDSDKPMEPVKRSPLRQETNMANFSYRFSIYNLNEALNQGETVDLDALMADLCSIEQELSSIGSGNSKRQITETKATQKLPVSRHTLKHGTLKGLSSSSNRIAKPSHASYSLDDVTAQLEQASLSMDEAAQQSVLEDTKPLVTNQHRRTASAGTVSDAEVHSISNSSHSSITSAASSMDSLDIDKVTRPQELDLTHQGQPITEEEQAAKLKAEKIRVALEKIKEAQVKKLVIRVHMSDDSSKTMMVDERQTVRQVLDNLMDKSHCGYSLDWSLVETVSELQMERIFEDHENLVENLLNWTRDSQNKLIFMERIEKYALFKNPQNYLLGKKETAEMADRNKEVLLEECFCGSSVTVPEIEGVLWLKDDGKKSWKKRYFLLRASGIFYVPKGKAKVSRDLVCFLQLDHVNVYYGQDFRNKYKAPTDYCLVLKHPQIQKKSQYIKYLCCDDVRTLHQWVNGIRIAKYGKQLYMNFQEALKRTESAYDWTSLSSSSIKSGSSSSSIPESQSNHSNQSDSGVSDTQPAGHVRSQSIVSSVFSEAWKRGTQLEESSKARMESMNRPYTSLVPPLSPQPKIVTPYTASQPSPPLPPPPPPPPPPPPPPPPPPPPLPSQSAPSAGSAAPMFVKYSTITRLQNASQHSGALFKPPTPPVMQSQSVKPQILVPPNGVVPPPPPPPPPPTPGSAMAQLKPAPCAPSLPQFSAPPPPLKIHQVQHITQVAPPTPPPPPPIPAPLPPQAPPKPLVTIPAPTSTKTVAPVVTQAAPPTPTPPVPPAKKQPAFPASYIPPSPPTPPVPVPPPTLPKQQSFCAKPPPSPLSPVPSVVKQIASQFPPPPTPPAMESQPLKPVPANVAPQSPPAVKAKPKWQPSSIPVPSPDFPPPPPESSLVFPPPPPSPVPAPPPPPPPTASPTPDKSGSPGKKTSKTSSPGGKKPPPTPQRNSSIKSSSGAEHPEPKRPSVDSLVSKFTPPAESGSPSKETLPPPAAPPKPGKLNLSGVNLPGVLQQGCVSAKAPVLSGRGKDSVVEFPSPPSDSDFPPPPPETELPLPPIEIPAVFSGNTSPKVAVVNPQPQQWSKMSVKKAPPPTRPKRNDSTRLTQAEISEQPTMATVVPQVPTSPKSSLSVQPGFLADLNRTLQRKSITRHGSLSSRMSRAEPTATMDDMALPPPPPELLSDQQKAGYGGSHISGFATLRRGPPPAPPKRDQNTKLSRDW
